Test results as given in the nanobody polyreactivity screen of Harvey et al. (2022).

Test: yeast display, Sf9 membrane polyspecificity reagent, FACS + sequencing; frameworks hold sequencing errors
How it was run: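 Genes from sorted yeast were amplified by colony PCR, read by MiSeq 2 × 250 sequencing and filtered on CDR length. These cells carried a synthetic nanobody library in Saccharomyces cerevisiae BJ5465 and were sorted by FACS into low and high (top ~1%) gates on anti-HA and streptavidin fluorescence. Polyreactivity is labelled according to the gate of origin.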

| Sequence | polyreactivity (PSR sort gate) |
| --- | --- |
| QVQLVESGGGLVQAGGSLRLSCAASGSIFRSYAMGWYRQAPGKERELVAAISRRGSSTYYADSVKGRFTISRDNAKNTVYLQMNSLKPEDTAVYYCNRVRYPRVDYWGQGTQVTVSS | high polyreactivity |
| QVQLVESGGGLVQAGGSLRLSCAASGSIFRSYAMGWYRQAPGKERELVASITRSSGSTYYADSVKGRFTISRDNAKNTVYLQMNSLKPEDTAVYYCNAVVSKSRRFRVDYWGQGTQVTVSS | high polyreactivity |
| QVQLVESGGGLVQAGGSLRLSCAASGSIFRSYAMGWYRQSPGKERELVASISRRGGSTYYADSVKGRFTISRDNAKNTVYLQMNSLKPEDTAVYYCAAVRYNSRVSTTPSDMYYWGQGTQVTVSS | low polyreactivity |
| QVQLVESGGGLVQAGGSLRLSCAASGSIFRTYAKGWYRQAPGKERELVATITFGGVSTYYADSVKGRFTISRDNAKNTVYLQMNSLKPEDTAVYYCAADVYTRFWRVYRFDYWGQGTQVTVSS | low polyreactivity |
| QVQLVESGGGLVQAGGSLRLSCAASGSIFRTYAMGWYRQAPGKERELVATITFGGVSTYYADSVKGRFTISRDNAKITVYLQMNSLKPEDTAVYYCAADVYTRFWRVYRFDYWGQGTQVTVSS | low polyreactivity |
| QVQLVESGGGLVQAGGSLRLSCAASGSIFRTYAMGWYRQAPGKERELVATITFGGVSTYYADSVKGRFTISRDNAKTTVYVQKTSLKPEDTAVYYCAAEVYTRFWRVYRFDYWGQGTQVTVSS | low polyreactivity |
| QVQLVESGGGLVQAGGSLRLSCAASGSIFRVYAMGWYRQAPGKERELVAAISTRGGSTYYADSVKGRFTISRDNAKNTVYLQMNSLNPEDTAVYYCAKRWPQYPDYKPMYYWGQGTQVTVSS | high polyreactivity |
| QVQLVESGGGLVQAGGSLRLSCAASGSIFRVYAMGWYRQAPGKERELVAGISSRGGTSTYYADSVKGRFTISRDNAKNTVYLQMNSLKPEDTAVYYCAVQVRYPGYDYWGQGTQVTVSS | low polyreactivity |
| QVQLVESGGGLVQAGGSLRLSCAASGSIFRVYVMGWYRQAPGKERELVARIRYRSGRTNYADSVKGRFTISRDNAKNTVYLQMNSLKPEDTAVYYCSADVYWPTAGDYTQKRDYWGLGTQVTVSS | high polyreactivity |
| QVQLVESGGGLVQAGGSLRLSCAASGSIFRWNAMGSYRQAPGKERELVAVINSSGGSTYYADSVKGRFTISRDNAKNTVYLQMNSLKPEDTAVYYCAAVIYKIIYGQYAYDYWGQGTQVTVSS | low polyreactivity |
| QVQLVESGGGLVQAGGSLRLSCAASGSIFRWNAMGWYRQAPGKERELVAAIDSGGSTYADSVKGRFTISRDNAKNTVYLQMNSLKPEDTAVYYCAAAIPDEWPYDYWGQGTQVTVSS | low polyreactivity |
| QVQLVESGGGLVQAGGSLRLSCAASGSIFRWYAMGWYRQAPGKERELVAAISRRGGRTYYADSVKGRFTISRDNAKNTVYLQMNSLKPEDSAVYYCNADFGYRLPGNYWGQGTQVTVSS | low polyreactivity |
| QVQLVESGGGLVQAGGSLRLSCAASGSIFRWYAMGWYRQAPGKERELVAAISTSGGNTYYADSVKGRFTISRDNAKNTVYLQMNSLKPEDTAVYYCNALWYRSLSYRYDYWGQGTQVTVSS | high polyreactivity |
| QVQLVESGGGLVQAGGSLRLSCAASGSIFRWYAMGWYRQAPGKERELVAAISYSGGSTYYADSVKGRFTISRDNAKNTVYLQMNSLKPEDTAVYYCARLGWKPITAARDYWGQVTQVTVSS | high polyreactivity |
| QVQLVESGGGLVQAGGSLRLSCAASGSIFRWYAMGWYRQAPGKERELVAAITSGGSTYYADSVKGRFTISRDNAKNTVYLQMNSLKPEDTAVYYCNAAKLASHTYDYWGLGTQVTVSS | low polyreactivity |
| QVQLVESGGGLVQAGGSLRLSCAASGSIFRYNAMGWYRQAPGKERELVAAISASGGRTHDADSVKGRFTISRDNAKNTVYLQMNSLKPEDTAVYYCAAATYRGTSLYGYWGQGTQVTVSS | high polyreactivity |
| QVQLVESGGGLVQAGGSLRLSCAASGSIFRYNAMGWYRQAPGKERELVASISWSGGSTYYADSVKGRFTISRDNAKNTVYLQMNSLKPEDNAFYYCNVYGKYFRSRYDSWGQGTQVNVSS | high polyreactivity |
